B1: SEQ 8 aptamer (ssRNA)
RNA: GGGUGGCAACAGGACAUGGAACGCGCCCCAACUGCUUGAAACAGGUUUUGCUGAGCAGUGAUGUGAGAUGCGUCUUCGUAC
modifications: 2'-F pyrimidines, 2'-OH purines
B2: SEQ 14 (ssRNA)
RNA: GGGCUAAACGCUCUGAGGGAAACAGGUUUUGCUCCUCGGAGCGUGGACGCCC
modifications: 2'-F pyrimidines, 2'-OH purines

This data set addresses Autotaxin (ENPP2, NPP2) (Homo sapiens, UniProt Q13822 Q13822:36-863). As to the kind of experiment: inhibition.
In general, IC50 refers to the point on the concentration scale where inhibition reaches its midpoint. Low readings indicate greater potency, high ones weaker potency. As to UCUGAGGGAAACAGGUUUUGCUCCUCGGA (mixed, as 16(43) with PS at A10) [SEQ 16(44)], half-maximal inhibition (IC50) was put at 2.8 nM.

Molecule UCUGAGGGAAACAGGUUUUGCUCCUCGGA (mixed, as 16(21) with dC2) [SEQ 16(41)] gave an IC50 of 2.2 nM.

Consider UCUGAGGGUAACAGGUUAUGCUCCUCGGA (ssRNA, 2'-F pyrimidines, 2'-OH purines) [SEQ 26], for which half-maximal inhibition (IC50) was put at 510 nM.

In turn, UCUGAGGGAAACAGGUUUUGCUCCUCGGA (mixed, as 16(47) with dA10 and phosphorodithioate at A10) [SEQ 16(68)] gave an IC50 of 1.7 nM.

In turn, GAGGGAAACAGGUUUUGCUCCUC (ssRNA, 2'-F pyrimidines, 2'-OH purines) [SEQ 20] had a concentration for half-maximal inhibition (IC50) of 100 nM.

Molecule UCUGAGGGAAACAGGUUUUGCUCCUCGGA (mixed, as 16(33) with PS at A10) [SEQ 16(37)] gave an IC50 of 0.25 nM.

Molecule UCUGAGGGAAACAGGUCUUGCUCCUCGGA (ssRNA, 2'-F pyrimidines, 2'-OH purines) [SEQ 41] registered an IC50 of 43 nM.

Turning to UCUGAGGGAAACAGGUUUUGCUCCUCGGA (mixed, as 16(49) with 2'-OMe C2 U3 U22 C24 U25) [SEQ 16(65)], the 50% inhibitory concentration (IC50) was determined as 0.3 nM.

Regarding UCUGAGGGAAACAGGUUUUGCUCCUCGGA (mixed, as 16(21) with dT3) [SEQ 16(42)], the concentration for half-maximal inhibition (IC50) came out at 1 nM.

As for B1, half-maximal inhibition (IC50) required 49 nM.

ACUGCUUGAAACAGGUUUUGCUGAGCAGU (ssRNA, 2'-F pyrimidines, 2'-OH purines) [SEQ 24] showed an IC50 of 33 nM.

In turn, B2 showed a concentration for half-maximal inhibition (IC50) of 26 nM.

Molecule UCUGAGGGAAACAGGCUUUGCUCCUCGGA (ssRNA, 2'-F pyrimidines, 2'-OH purines) [SEQ 31] showed a concentration for half-maximal inhibition (IC50) of 130 nM.

In the case of UCUGAGGGAAACAGGUUUUGCUCCUCGGA (mixed, as 16(38) with 5' 40 kDa PEG (GL2-400GS2)-ssH linker instead of 5' idT) [SEQ 16(39)], the IC50 turned out to be 3.8 nM.

CGAGGGAAACAGGUUUUGCUCCUCG (ssRNA, 2'-F pyrimidines, 2'-OH purines) [SEQ 19] gave a 50% inhibitory concentration (IC50) of 36 nM.

In turn, AGGGAAACAGGUUUUGCUCCU (ssRNA, 2'-F pyrimidines, 2'-OH purines) [SEQ 21] registered a half-inhibitory concentration (IC50) of 710 nM.

In turn, UCUGGGGGAAACAGGUUUUGCUCCCCGGA (ssRNA, 2'-F pyrimidines, 2'-OH purines) [SEQ 44] showed an IC50 of 38 nM.

UCUGAGGGAAACAGGUUUUGCUCCUCGGA (mixed, as 16(45) with PS at A10) [SEQ 16(46)] came in with an IC50 of 2 nM.

Regarding UCUGAGGGAAACAGGUUUUGCUCCUCGGA (mixed, as 16(21) with 5' 80 kDa PEG (GL4-800GS2)-ssH linker instead of 5' idT) [SEQ 16(45)], the IC50 came to 13 nM.

In turn, UCUGAGGGAAACAGGUUUUGCUCCUCGGA (mixed, as 16(33) with 5' 40 kDa PEG (GL2-400GS2)-ssH linker instead of 5' idT) [SEQ 16(35)] yielded an IC50 of 3 nM.

Turning to UCCGAGGGAAACAGGUUUUGCUCCUCGGA (ssRNA, 2'-F pyrimidines, 2'-OH purines) [SEQ 29], 53 nM corresponded to half-maximal inhibition (IC50).

Take UCUGAGGGAAACAGGUUUUGCUCCUCGGA (mixed, as 16(21) with dT1) [SEQ 16(40)]: 0.9 nM corresponded to half-maximal inhibition (IC50).

Take UCUGAGGGAAACAGGUUUCGCUCCUCGGA (ssRNA, 2'-F pyrimidines, 2'-OH purines) [SEQ 32]: the concentration for half-maximal inhibition (IC50) came to 55 nM.

For the molecule UCUGAGGGAGACAGGUUUUGCUCCUCGGA (ssRNA, 2'-F pyrimidines, 2'-OH purines) [SEQ 34], the IC50 came out at 340 nM.

For the molecule CUGAGGGAAACAGGUUUUGCUCCUCGG (ssRNA, 2'-F pyrimidines, 2'-OH purines) [SEQ 18], the IC50 is 34 nM.

In the case of UGAGGGAAACAGGUUUUGCUCCUCG (ssRNA, 2'-F pyrimidines, 2'-OH purines) [SEQ 17], the IC50 came to 37 nM.

As for UCUGAGGGAAACAGGUUUUGCUCCUCGGA (ssRNA, 2'-F pyrimidines, 2'-OH purines) [SEQ 16], half-maximal inhibition (IC50) was put at 12 nM.

In turn, UCUGAGGGAAACAGGUUUUGCUCCUCGGA (mixed, as 16(21) with 5' 80 kDa PEG (GL2-800GS2)-ssH linker instead of 5' idT) [SEQ 16(43)] registered an IC50 of 3 nM.

The molecule UCUGAGGGAAACAGGUUUUGCUCCUCGGA (mixed, as 16(21) with dT1 dC23 dC26) [SEQ 16(47)] yielded a half-inhibitory concentration (IC50) of 2.4 nM.

UCUGAGGGAAACAGGUUUUGCUCCUCGAA (ssRNA, 2'-F pyrimidines, 2'-OH purines) [SEQ 45] yielded an IC50 of 29 nM.

UCUGAGGGAAACAGGUUUUGCUCCUCGGA (mixed, as 16(48) with PS at A10) [SEQ 16(49)] gave an IC50 of 1.6 nM.

The molecule UCUGAGGGGAACAGGUUUUGCUCCUCGGA (ssRNA, 2'-F pyrimidines, 2'-OH purines) [SEQ 33] gave a 50% inhibitory concentration (IC50) of 690 nM.

Molecule UCCGAGGGAAACAGGUUUUGCUCCUCGCA (ssRNA, 2'-F pyrimidines, 2'-OH purines) [SEQ 47] gave an IC50 of 66 nM.

The molecule UCUGAGGGAAACAGGUUUUGCUCCUCGGA (mixed, as 16(21) with dC23 dC26) [SEQ 16(38)] gave an IC50 of 1.3 nM.

As for UCUGAGGGAAACAGGUUUUGCUCCUCGGA (mixed, as 16(47) with PS at A10 and 2'-OMe C2 U3) [SEQ 16(55)], half-maximal inhibition (IC50) was put at 0.4 nM.

The molecule UCUGAGGGAAACAGGUUUUGCUCCUCGGA (mixed, as 16(21) with dC23 dC24 dC26) [SEQ 16(33)] yielded an IC50 of 0.6 nM.

Regarding UCUGAGGGAAACAGGUUUUGCUCCUCAGA (ssRNA, 2'-F pyrimidines, 2'-OH purines) [SEQ 30], the IC50 is 50 nM.

The molecule UCUGAGGGUAACAGGUUUUGCUCCUCGGA (ssRNA, 2'-F pyrimidines, 2'-OH purines) [SEQ 40] returned an IC50 of 49 nM.

Regarding CCGCUCUGAGGGAAACAGGUUUUGCUCCUCGGAGCGG (ssRNA, 2'-F pyrimidines, 2'-OH purines) [SEQ 15], the IC50 is 7 nM.

Consider UCUGAGGGAAACAGGUUUUGCUCCUCGGA (mixed, as 16(47) with 5' 80 kDa PEG (GL2-800GS2)-ssH linker instead of 5' idT) [SEQ 16(48)], for which it took 7.8 nM to reach half-maximal inhibition (IC50).

In turn, UCUGAGGGAAACAGGUUUUGCUCCUCGGA (mixed, as 16(32) with PS at A10) [SEQ 16(36)] had a half-inhibitory concentration (IC50) of 0.3 nM.

UCUGAGGGAAACAGGUUUUGCUCCUCGGA (mixed, as 16(32) with 5' 40 kDa PEG (GL2-400GS2)-ssH linker instead of 5' idT) [SEQ 16(34)] registered an IC50 of 4.2 nM.
